The values that follow are results of earlier work, collected in PMC3386632.

Usually Kd stands for a measure of binding affinity in units of concentration.

For this data set, the target named is integrin αIIbβ3 (Homo sapiens) (UniProt P08514).

Consider disagregin (from UniProt P36235), for which the Kd is 40 nM.
